From article PMC2148115

Molecular target: Tubulin (αβ-tubulin heterodimer) from pig brain (pig) (UniProt P02550)
Test: AUC

percent of the protein in the 19.5 S species, molar ratio to tubulin 0.43:1: 21%
percent of the protein in the 28.5 S species, molar ratio to tubulin 0.43:1: 26%
Substance: MAP2C (from UniProt P15146-3 1-467) (natural protein)
